This is an account of results in patent US8541373B2, “BChE albumin fusions for the treatment of cocaine abuse” (priority 2009, dated 2013).

The nature of series [1]: Cardiovascular and respiratory safety pharmacology of AlbuBChE alone (telemetry). Conditions: 15 mg/kg IM. The method, then: Prior to the start of the study, the monkeys were surgically instrumented with telemetry transmitters and vascular access ports. The following CV parameters were monitored: systolic pressure, diastolic pressure, mean arterial blood pressure, mean heart rate and mean rate-pressure product. Body temperatures changes were also monitored.
Study Group 1 (3 males and 3 females), served as a control group for testing the effect of AlbuBChE alone compared to its vehicle. Monkeys were administered (IM) with the control article AlbuBChE formulation buffer on Study Days (SDs) 1 and 4. Three hours post formulation buffer administration respiratory and cardiovascular (CV) parameters were recorded, respectively.
A single IM dose of the test article (AlbuBChE at 15 mg/kg) was administered on SD 8 and 11. Three hours after AlbuBChE dosing (corresponding to Tmax of AlbuBChE) CV and respiratory parameters were monitored, respectively.
The physiological responses to test article administration, including blood pressure, heart rate, body temperature, and the electrocardiograph (ECG), were monitored.

Series [2] deals with cocaine-induced reinstatement. Briefly: Reinstatement of cocaine self-administration. Format: in vivo, squirrel monkeys (Saimiri sciureus). The method, then:
The blood level data were analyzed separately for each metabolite and time point (5 or 30 min). […] The self-administration data were analyzed separately for response rate or injections following either vehicle treatment or AlbuBChE treatment. Control data were included in the analysis by taking the average of the last 3 days for the immediately preceding baseline condition. A within subjects ANOVA was then performed with follow-up tests contrasting days following vehicle or AlbuBChE with the control. For the reinstatement tests, a two-way ANOVA was performed for both response rate and injections, with time post vehicle or AlbuBChE as the within-subjects factor and pretreatment (vehicle or AlbuBChE) as the between subjects factor. Follow-up contrast compared vehicle and AlbuBChE at each time point.

Turning to AlbuBChE, the “Changes in recorded CV parameters and body temperature vs formulation buffer” value in series [1] was “did not produce any significant changes”. Further, the Survival result in series [1] (with or without cocaine) is listed as “All animals survived”. The “Reinstatement of responding (response rate and injections)” value in series [2] (5 mg/kg i.m., 0.3 mg/kg cocaine i.v., 2 hr time point) is recorded as “significantly blocked”. Also, in series [2] (5 mg/kg, 0.1 mg/kg cocaine as reinstatement dose), the “Reinstatement of responding (responses and injections)” value is “significant at 2 hrs”.
